Data taken from article PMC2255029, “UV-A-induced structural and functional changes in human lens deamidated αB-crystallin” (Molecular Vision, 2008).
Numbering of substitutions follows the chain as printed.

B1: wild type (WT) αB-crystallin (natural protein, human, UniProt P02511 1-175, looked up)
chain: MDIAIHHPWIRRPFFPFHSPSRLFDQFFGEHLLESDLFPTSTSLSPFYLRPPSFLRAPSWFDTGLSEMRLEKDRFSVNLDVKHFSPEELKVKVLGDVIEVHGKHEERQDEHGFISREFHRKYRIPADVDPLTITSSLSSDGVLTVNGPRKQVSGPERTIPITREEKPAVTAAPKK
notes: αB-crystallin, human, 175 amino acid residues; cDNA cloned in plasmid pDIRECT; Oligomer; Also used after UV-A exposure (320-400 nm; 20 or 50 J/cm^2), which oxidises Met and/or Trp residues and partly degrades the protein; source: E. coli BL21 (DE3) pLysS, purified (DEAE-Sephacel, Butyl-Sepharose, size-exclusion HPLC)
B2: αB-Asn146Asp deamidated mutant protein (natural protein, human, UniProt P02511 1-175, looked up)
chain: B1 chain with N146D
notes: αB-crystallin, human, 175 amino acid residues; cDNA cloned in plasmid pDIRECT; Asn146 changed to Asp by site-directed mutagenesis; Mimics deamidation of Asn146; Also used after UV-A exposure; source: E. coli BL21 (DE3) pLysS, purified (DEAE-Sephacel, Butyl-Sepharose, size-exclusion HPLC)
B3: αB-Asn78Asp deamidated mutant protein (natural protein, human, UniProt P02511 1-175, looked up)
chain: B1 chain with N78D
notes: αB-crystallin, human, 175 amino acid residues; cDNA cloned in plasmid pDIRECT; Asn78 changed to Asp by site-directed mutagenesis; Mimics deamidation of Asn78; Also used after UV-A exposure; source: E. coli BL21 (DE3) pLysS, purified (DEAE-Sephacel, Butyl-Sepharose, size-exclusion HPLC)
B4: αB-Asn78/146Asp deamidated double mutant protein (natural protein, human, UniProt P02511 1-175, looked up)
chain: B1 chain with N78D, N146D
notes: αB-crystallin, human, 175 amino acid residues; cDNA cloned in plasmid pDIRECT; both Asn78 and Asn146 changed to Asp by site-directed mutagenesis; Mimics deamidation of Asn78 and Asn146; Also used after UV-A exposure; source: E. coli BL21 (DE3) pLysS, purified (DEAE-Sephacel, Butyl-Sepharose, size-exclusion HPLC)

Molecular target: the molecule itself
Test: cross-linking; UV-A irradiation (320-400 nm; 20 and 50 J/cm^2, about 5 °C, 50 mM phosphate buffer, pH 7.5) of the purified protein, then SDS-PAGE after treatment with 150 mM β-mercaptoethanol; 40 kDa species

Row | Protein | stoichiometry N
1 | B1 | 2
2 | B2 | 2
3 | B3 | 2
4 | B4 | 2
